The Immune Epitope Database (IEDB)

Experiments:
HLA-A*02:03 = experiment: IEDB peptide-MHC binding, purified MHC/competitive/radioactivity; filed as Kd, often an IC50 or EC50 that approximates it; ≥ and ≤ were set here for values at or beyond the usual limits of such assays; conditions: source organism: Dengue virus 1 Brazil/97-11/1997
HLA-A*02:17 = experiment: as above
HLA-B*39:01 [1] = experiment: IEDB peptide-MHC binding, purified MHC/direct/fluorescence; filed as Kd, often an IC50 or EC50 that approximates it; ≥ and ≤ were set here for values at or beyond the usual limits of such assays
HLA-B*83:01 = experiment: IEDB peptide-MHC binding, purified MHC/competitive/fluorescence; filed as Kd, often an IC50 or EC50 that approximates it; ≥ and ≤ were set here for values at or beyond the usual limits of such assays; conditions: source organism: human gammaherpesvirus 4
HLA-B*45:06 = experiment: as above; conditions: source organism: human gammaherpesvirus 4
HLA-B*15:42 = experiment: as above; conditions: source organism: human gammaherpesvirus 4
HLA-C*05:01 = experiment: IEDB peptide-MHC binding, purified MHC/direct/fluorescence; filed as Kd, often an IC50 or EC50 that approximates it; ≥ and ≤ were set here for values at or beyond the usual limits of such assays
HLA-A*11:01 [2] = experiment: IEDB peptide-MHC binding, purified MHC/competitive/fluorescence; ≥ and ≤ were set here for values at or beyond the usual limits of such assays
HLA-A*03:01 [3] = experiment: as above
HLA-A*24:02 = experiment: as above
HLA-A*02:01 [4] = experiment: IEDB peptide-MHC binding, purified MHC/direct/fluorescence; filed as Kd, often an IC50 or EC50 that approximates it; ≥ and ≤ were set here for values at or beyond the usual limits of such assays
HLA-A*69:01 [5] = experiment: as above
HLA-A*02:19 = experiment: as above; conditions: source organism: Orthohantavirus sangassouense
HLA-A*02:11 = experiment: as above; conditions: source organism: Orthohantavirus sangassouense
HLA-A*02:12 = experiment: as above; conditions: source organism: Orthohantavirus sangassouense
HLA-A*02:01 [6] = experiment: IEDB peptide-MHC binding, purified MHC/competitive/fluorescence; ≥ and ≤ were set here for values at or beyond the usual limits of such assays; conditions: source organism: Zaire ebolavirus
HLA-B*39:01 [7] = experiment: IEDB peptide-MHC binding, purified MHC/competitive/fluorescence; filed as Kd, often an IC50 or EC50 that approximates it; ≥ and ≤ were set here for values at or beyond the usual limits of such assays
HLA-B*15:17 = experiment: as above; conditions: source organism: Homo sapiens
HLA-B*18:01 [8] = experiment: as above
HLA-B*51:01 = experiment: as above; conditions: source organism: Homo sapiens
HLA-B*27:03 = experiment: as above
HLA-B*57:01 [9] = experiment: as above
HLA-A*26:01 = experiment: as above
HLA-B*46:01 [10] = experiment: as above
HLA-A*03:01 [11] = experiment: as above
HLA-A*69:01 [12] = experiment: as above; conditions: source organism: Homo sapiens
HLA-B*15:01 = experiment: as above
HLA-B*07:02 = experiment: IEDB peptide-MHC binding, purified MHC/direct/fluorescence; filed as Kd, often an IC50 or EC50 that approximates it; ≥ and ≤ were set here for values at or beyond the usual limits of such assays
HLA-B*18:01 [13] = experiment: as above; conditions: source organism: West Nile virus
HLA-B*40:01 = experiment: as above; conditions: source organism: West Nile virus
HLA-B*08:01 = experiment: as above; conditions: source organism: West Nile virus
HLA-A*31:01 = experiment: as above
HLA-A*11:01 [14] = experiment: as above
HLA-B*27:05 = experiment: as above; conditions: source organism: West Nile virus
HLA-B*58:01 = experiment: as above
HLA-B*57:01 [15] = experiment: as above
HLA-A*03:01 [16] = experiment: as above
HLA-B*46:01 [17] = experiment: as above; conditions: source organism: West Nile virus
HLA-A*29:02 = experiment: as above
HLA-A*01:01 = experiment: as above
HLA-B*44:02 = experiment: as above; conditions: source organism: Mycobacterium tuberculosis
HLA-A*02:06 = experiment: IEDB peptide-MHC binding, purified MHC/competitive/radioactivity; filed as Kd, often an IC50 or EC50 that approximates it; ≥ and ≤ were set here for values at or beyond the usual limits of such assays; conditions: source organism: Dengue virus 4 Dominica/814669/1981
HLA-A*02:01 [18] = experiment: IEDB peptide-MHC binding, purified MHC/competitive/fluorescence; filed as Kd, often an IC50 or EC50 that approximates it; ≥ and ≤ were set here for values at or beyond the usual limits of such assays; conditions: source organism: Staphylococcus aureus subsp. aureus N315
[19] = source organism: Vaccinia virus Copenhagen
[20] = source organism: Sudan ebolavirus
[21] = source organism: Zaire ebolavirus
[22] = source organism: West Nile virus
[23] = source organism: Mycobacterium tuberculosis
[24] = source organism: Staphylococcus aureus subsp. aureus N315

## ELMRRGDLPV
HLA-A*02:03
  Kd: 0.139 µM
HLA-A*02:17; source organism: Dengue virus 4 Philippines/H241/1956
  Kd: 19.9 µM

## FHDSNVKNL
HLA-B*39:01 [1]; source organism: Influenza A virus (A/chicken/Nakorn-Patom/Thailand/CU-K3/2004(H5N1))
  Kd: 0.168 µM

## FHFFVHTLL
HLA-B*39:01 [1]; source organism: Camelpox virus M-96
  Kd: 0.052 µM

## FLDKGTYTL
HLA-B*83:01
  Kd: ≥ 5 µM
HLA-B*45:06
  Kd: ≥ 5 µM
HLA-B*15:42
  Kd: ≥ 5 µM
HLA-C*05:01; source organism: human gammaherpesvirus 4
  Kd: ≤ 0.001 µM

## FRAICTNGL
HLA-B*39:01 [1]; source organism: Escherichia coli O157:H7 str. EC869
  Kd: 0.01 µM

## FYRSGTETK
HLA-A*11:01 [2]; [19]
  IC50: 44.1 µM
HLA-A*03:01 [3]; [19]
  IC50: 64.2 µM
HLA-A*24:02; [19]
  IC50: ≥ 99.2 µM

## GIYTEGLMH
HLA-A*11:01 [2]; [20]
  IC50: 3.55 µM
HLA-A*03:01 [3]; [20]
  IC50: 15.4 µM

## GLYPAQIKA
HLA-A*02:01 [4]; source organism: Amur virus
  Kd: 0.0035 µM
HLA-A*69:01 [5]; source organism: Amur virus
  Kd: ≥ 20 µM
HLA-A*02:19
  Kd: ≥ 20 µM
HLA-A*02:11
  Kd: 0.033 µM
HLA-A*02:12
  Kd: 0.126 µM

## KIDNNTFVR
HLA-A*11:01 [2]; [20]
  IC50: 2.74 µM
HLA-A*03:01 [3]; [20]
  IC50: 31.9 µM

## KSMRDQRKG
HLA-A*11:01 [2]; source organism: Variola virus
  IC50: 47.3 µM
HLA-A*03:01 [3]; source organism: Variola virus
  IC50: ≥ 119 µM

## LITGGRRTR
HLA-A*02:01 [6]
  IC50: ≥ 111 µM
HLA-A*11:01 [2]; [21]
  IC50: ≥ 93.3 µM
HLA-A*03:01 [3]; [21]
  IC50: ≥ 112 µM

## LLAMTFWPA
HLA-B*39:01 [7]; source organism: Homo sapiens
  Kd: ≥ 20 µM
HLA-B*15:17
  Kd: ≥ 20 µM
HLA-B*18:01 [8]; source organism: Homo sapiens
  Kd: ≥ 20 µM
HLA-B*51:01
  Kd: ≥ 20 µM
HLA-B*27:03; source organism: Homo sapiens
  Kd: ≥ 20 µM
HLA-B*57:01 [9]; source organism: Homo sapiens
  Kd: ≥ 20 µM
HLA-A*26:01; source organism: Homo sapiens
  Kd: ≥ 20 µM
HLA-B*46:01 [10]; source organism: Homo sapiens
  Kd: ≥ 20 µM
HLA-A*02:01 [4]; source organism: Homo sapiens
  Kd: 0.0002 µM

## LLLKERGLH
HLA-A*03:01 [11]; source organism: Vibrio parahaemolyticus AQ3810
  Kd: ≥ 20 µM

## LMQCWQLLA
HLA-B*39:01 [7]; source organism: Homo sapiens
  Kd: ≥ 20 µM
HLA-B*15:17
  Kd: ≥ 20 µM
HLA-B*18:01 [8]; source organism: Homo sapiens
  Kd: ≥ 20 µM
HLA-A*69:01 [12]
  Kd: ≥ 20 µM
HLA-B*15:01; source organism: Homo sapiens
  Kd: ≥ 20 µM
HLA-B*51:01
  Kd: ≥ 20 µM
HLA-B*27:03; source organism: Homo sapiens
  Kd: ≥ 20 µM
HLA-B*57:01 [9]; source organism: Homo sapiens
  Kd: ≥ 20 µM
HLA-A*26:01; source organism: Homo sapiens
  Kd: ≥ 20 µM
HLA-B*46:01 [10]; source organism: Homo sapiens
  Kd: ≥ 20 µM

## LSSSVPSQK
HLA-A*03:01 [11]; source organism: Homo sapiens
  Kd: 0.455 µM

## LVKTESWIL
HLA-B*07:02; [22]
  Kd: ≥ 20 µM
HLA-A*02:01 [4]; [22]
  Kd: ≥ 20 µM
HLA-B*18:01 [13]
  Kd: ≥ 20 µM
HLA-B*40:01
  Kd: ≥ 20 µM
HLA-B*08:01
  Kd: 1.89 µM
HLA-A*31:01; [22]
  Kd: ≥ 20 µM
HLA-A*11:01 [14]; [22]
  Kd: ≥ 20 µM
HLA-A*69:01 [5]; [22]
  Kd: ≥ 20 µM
HLA-B*27:05
  Kd: ≥ 20 µM
HLA-B*58:01; [22]
  Kd: ≥ 20 µM
HLA-B*57:01 [15]; [22]
  Kd: ≥ 20 µM
HLA-A*03:01 [16]; [22]
  Kd: ≥ 20 µM
HLA-B*46:01 [17]
  Kd: ≥ 20 µM
HLA-A*29:02; [22]
  Kd: ≥ 20 µM
HLA-A*01:01; [22]
  Kd: ≥ 20 µM

## SGYYSTTIR
HLA-A*11:01 [2]; [21]
  IC50: 0.903 µM
HLA-A*03:01 [3]; [21]
  IC50: 1.67 µM
HLA-A*24:02; [21]
  IC50: ≥ 346 µM

## SQAFNTPAL
HLA-B*07:02; [23]
  Kd: ≥ 20 µM
HLA-B*44:02
  Kd: ≥ 20 µM
HLA-B*39:01 [1]; [23]
  Kd: 0.0308 µM
HLA-A*31:01; [23]
  Kd: ≥ 20 µM
HLA-B*58:01; [23]
  Kd: ≥ 20 µM
HLA-B*57:01 [15]; [23]
  Kd: ≥ 20 µM
HLA-A*03:01 [16]; [23]
  Kd: ≥ 20 µM
HLA-A*29:02; [23]
  Kd: ≥ 20 µM
HLA-A*01:01; [23]
  Kd: ≥ 20 µM

## TFDVAPSRL
HLA-C*05:01; source organism: Mus musculus
  Kd: ≥ 20 µM
HLA-A*11:01 [14]; source organism: Homo sapiens
  Kd: ≥ 32.6 µM

## TLLCLIPTV
HLA-A*02:06
  Kd: 0.00344 µM
HLA-A*02:17; source organism: Dengue virus 4 Dominica/814669/1981
  Kd: 0.151 µM

## VILNYIPVL
HLA-A*02:01 [18]
  Kd: 0.0006 µM
HLA-B*39:01 [7]; [24]
  Kd: ≥ 20 µM
HLA-B*18:01 [8]; [24]
  Kd: ≥ 20 µM
HLA-B*15:01; [24]
  Kd: ≥ 20 µM
HLA-B*27:03; [24]
  Kd: ≥ 20 µM
HLA-B*57:01 [9]; [24]
  Kd: ≥ 20 µM
HLA-A*03:01 [11]; [24]
  Kd: ≥ 20 µM
HLA-A*26:01; [24]
  Kd: ≥ 20 µM
HLA-B*46:01 [10]; [24]
  Kd: ≥ 20 µM

## WMFRIRIIL
HLA-A*69:01 [12]
  Kd: ≥ 20 µM
HLA-B*15:01; source organism: Homo sapiens
  Kd: ≥ 20 µM
HLA-B*51:01
  Kd: ≥ 20 µM
HLA-B*27:03; source organism: Homo sapiens
  Kd: ≥ 20 µM
HLA-B*57:01 [9]; source organism: Homo sapiens
  Kd: ≥ 20 µM
HLA-A*26:01; source organism: Homo sapiens
  Kd: ≥ 20 µM
HLA-B*46:01 [10]; source organism: Homo sapiens
  Kd: ≥ 20 µM
